Strand notation (5' to 3'): a small letter for the sugar, then the base; units joined by * are phosphorothioate-linked, units joined directly phosphodiester-linked; [ ] holds rarer units or linkages, { } end groups; capitals alone tell only the bases. m = 2'-O-methyl; r = 2'-OH (RNA)
B1: G000492: TTR sgRNA modified sequence, Human, SEQ ID NO: 99; guide sequence of CR003342 (nucleic acid)
guide: mC*mU*mU*rCrUrCrUrArCrArCrCrCrArGrGrGrCrArCrGrUrUrUrUrArGrAmGmCmUmAmGmAmAmAmUmAmGmCrArArGrUrUrArArArArUrArArGrGrCrUrArGrUrCrCrGrUrUrArUrCrAmAmCmUmUmGmAmAmAmAmAmGmUmGmGmCmAmCmCmGmAmGmUmCmGmGmUmGmCmU*mU*mU*mU
B2: G000496: TTR sgRNA modified sequence, Human, SEQ ID NO: 103; guide sequence of CR005304 (nucleic acid)
guide: mG*mG*mC*rCrGrUrGrCrArUrGrUrGrUrUrCrArGrArArGrUrUrUrUrArGrAmGmCmUmAmGmAmAmAmUmAmGmCrArArGrUrUrArArArArUrArArGrGrCrUrArGrUrCrCrGrUrUrArUrCrAmAmCmUmUmGmAmAmAmAmAmGmUmGmGmCmAmCmCmGmAmGmUmCmGmGmUmGmCmU*mU*mU*mU
B3: G000498: TTR sgRNA modified sequence, Human, SEQ ID NO: 105; guide sequence of CR003359 (nucleic acid)
guide: mA*mG*mU*rGrArGrUrCrUrGrGrArGrArGrCrUrGrCrArGrUrUrUrUrArGrAmGmCmUmAmGmAmAmAmUmAmGmCrArArGrUrUrArArArArUrArArGrGrCrUrArGrUrCrCrGrUrUrArUrCrAmAmCmUmUmGmAmAmAmAmAmGmUmGmGmCmAmCmCmGmAmGmUmCmGmGmUmGmCmU*mU*mU*mU
B4: G000495: TTR sgRNA modified sequence, Human, SEQ ID NO: 102; guide sequence of CR003343 (nucleic acid)
guide: mC*mA*mG*rArGrGrArCrArCrUrUrGrGrArUrUrCrArCrGrUrUrUrUrArGrAmGmCmUmAmGmAmAmAmUmAmGmCrArArGrUrUrArArArArUrArArGrGrCrUrArGrUrCrCrGrUrUrArUrCrAmAmCmUmUmGmAmAmAmAmAmGmUmGmGmCmAmCmCmGmAmGmUmCmGmGmUmGmCmU*mU*mU*mU
B5: G000501: TTR sgRNA modified sequence, Human, SEQ ID NO: 108; guide sequence of CR005300 (nucleic acid)
guide: mU*mC*mA*rCrArGrArArArCrArCrUrCrArCrCrGrUrArGrUrUrUrUrArGrAmGmCmUmAmGmAmAmAmUmAmGmCrArArGrUrUrArArArArUrArArGrGrCrUrArGrUrCrCrGrUrUrArUrCrAmAmCmUmUmGmAmAmAmAmAmGmUmGmGmCmAmCmCmGmAmGmUmCmGmGmUmGmCmU*mU*mU*mU
B6: G000491: TTR sgRNA modified sequence, Human, SEQ ID NO: 98; guide sequence of CR003338 (nucleic acid)
guide: mA*mU*mA*rCrCrArGrUrCrCrArGrCrArArGrGrCrArGrGrUrUrUrUrArGrAmGmCmUmAmGmAmAmAmUmAmGmCrArArGrUrUrArArArArUrArArGrGrCrUrArGrUrCrCrGrUrUrArUrCrAmAmCmUmUmGmAmAmAmAmAmGmUmGmGmCmAmCmCmGmAmGmUmCmGmGmUmGmCmU*mU*mU*mU
B7: G000487: TTR sgRNA modified sequence, Human, SEQ ID NO: 94; guide sequence of CR003357 (nucleic acid)
guide: mU*mU*mC*rUrUrUrGrGrCrArArCrUrUrArCrCrCrArGrGrUrUrUrUrArGrAmGmCmUmAmGmAmAmAmUmAmGmCrArArGrUrUrArArArArUrArArGrGrCrUrArGrUrCrCrGrUrUrArUrCrAmAmCmUmUmGmAmAmAmAmAmGmUmGmGmCmAmCmCmGmAmGmUmCmGmGmUmGmCmU*mU*mU*mU
B8: G000497: TTR sgRNA modified sequence, Human, SEQ ID NO: 104; guide sequence of CR003335 (nucleic acid)
guide: mC*mU*mG*rCrUrCrCrUrCrCrUrCrUrGrCrCrUrUrGrCrGrUrUrUrUrArGrAmGmCmUmAmGmAmAmAmUmAmGmCrArArGrUrUrArArArArUrArArGrGrCrUrArGrUrCrCrGrUrUrArUrCrAmAmCmUmUmGmAmAmAmAmAmGmUmGmGmCmAmCmCmGmAmGmUmCmGmGmUmGmCmU*mU*mU*mU
B9: G000485: TTR sgRNA modified sequence, Human, SEQ ID NO: 92; guide sequence of CR003336 (nucleic acid)
guide: mC*mC*mU*rCrCrUrCrUrGrCrCrUrUrGrCrUrGrGrArCrGrUrUrUrUrArGrAmGmCmUmAmGmAmAmAmUmAmGmCrArArGrUrUrArArArArUrArArGrGrCrUrArGrUrCrCrGrUrUrArUrCrAmAmCmUmUmGmAmAmAmAmAmGmUmGmGmCmAmCmCmGmAmGmUmCmGmGmUmGmCmU*mU*mU*mU
B10: G000504: TTR Cyno specific sgRNA modified sequence, SEQ ID NO: 116; guide sequence of CR005364 (nucleic acid)
guide: mA*mA*mA*rGrGrCrUrGrCrUrGrArUrGrArGrArCrCrUrGrUrUrUrUrArGrAmGmCmUmAmGmAmAmAmUmAmGmCrArArGrUrUrArArArArUrArArGrGrCrUrArGrUrCrCrGrUrUrArUrCrAmAmCmUmUmGmAmAmAmAmAmGmUmGmGmCmAmCmCmGmAmGmUmCmGmGmUmGmCmU*mU*mU*mU
B11: G000503: TTR Cyno specific sgRNA modified sequence, SEQ ID NO: 115; guide sequence of CR005372 (nucleic acid)
guide: mA*mA*mA*rArGrGrCrUrGrCrUrGrArUrGrArGrArCrCrGrUrUrUrUrArGrAmGmCmUmAmGmAmAmAmUmAmGmCrArArGrUrUrArArArArUrArArGrGrCrUrArGrUrCrCrGrUrUrArUrCrAmAmCmUmUmGmAmAmAmAmAmGmUmGmGmCmAmCmCmGmAmGmUmCmGmGmUmGmCmU*mU*mU*mU

test system: TTR; assay: TTR editing in primary human hepatocytes treated with LNP formulated Spy Cas9 mRNA (SEQ ID NO: 2) and sgRNAs, 12.5 ng mRNA; type: cell-based; conditions: LNP formulated Spy Cas9 mRNA (SEQ ID NO: 2) and sgRNA, 12.5 ng mRNA, 3.9 nM sgRNA, 72 hours
Description: (§1) Primary liver hepatocytes. Primary human liver hepatocytes (PHH) and primary cynomolgus liver hepatocytes (PCH) (Gibco) were cultured per the manufacturer's protocol (Invitrogen, protocol 11.28.2012). In brief, the cells were thawed and resuspended in hepatocyte thawing medium with supplements (Gibco, Cat. CM7000) followed by centrifugation at 100 g for 10 minutes for human and 80 g for 4 minutes for cyno. The supernatant was discarded and the pelleted cells resuspended in hepatocyte plating medium plus supplement pack (Invitrogen, Cat. A1217601 and CM3000). Cells were counted and plated on Bio-coat collagen I coated 96-well plates (ThermoFisher, Cat. 877272) at a density of 33,000 cells/well for human or 60,000 cells/well for cyno (or 65,000 cells/well when assaying effects on TTR protein, described further below). Plated cells were allowed to settle and adhere for 6 or 24 hours in a tissue culture incubator at 37° C. and 5% CO2 atmosphere. After incubation cells were checked for monolayer formation and media was replaced with hepatocyte culture medium with serum-free supplement pack (Invitrogen, Cat. A1217601 and CM4000).
In general, the lipid nanoparticle components were dissolved in 100% ethanol with the lipid component of various molar ratios. The RNA cargos were dissolved in 25 mM citrate, 100 mM NaCl, pH 5.0, resulting in a concentration of RNA cargo of approximately 0.45 mg/mL. The LNPs were formulated with a lipid amine to RNA phosphate (N:P) molar ratio of about 4.5 or about 6, with the ratio of mRNA to gRNA at 1:1 by weight.
The LNPs were formed by microfluidic mixing of the lipid and RNA solutions using a Precision Nanosystems NanoAssemblr™ Benchtop Instrument, according to the manufacturer's protocol. A 2:1 ratio of aqueous to organic solvent was maintained during mixing using differential flow rates. After mixing, the LNPs were collected, diluted in water (approximately 1:1 v/v), held for 1 hour at room temperature, and further diluted with water (approximately 1:1 v/v) before final buffer exchange. The final buffer exchange into 50 mM Tris, 45 mM NaCl, 5% (w/v) sucrose, pH 7.5 (TSS) was completed with PD-10 desalting columns (GE). If required, formulations were concentrated by centrifugation with Amicon 100 kDa centrifugal filters (Millipore). The resulting mixture was then filtered using a 0.2 μm sterile filter. The final LNP was stored at −80° C. until further use.
(§2) Additional PCR was performed per the manufacturer's protocols (Illumina) to add chemistry for sequencing. The amplicons were sequenced on an Illumina MiSeq instrument. The reads were aligned to a reference genome (e.g., the human reference genome (hg38), the cynomologus reference genome (mf5), the rat reference genome (rn6), or the mouse reference genome (mm10)) after eliminating those having low quality scores. The resulting files containing the reads were mapped to the reference genome (BAM files), where reads that overlapped the target region of interest were selected and the number of wild type reads versus the number of reads which contain an insertion, substitution, or deletion was calculated.
(§3) The editing percentage (e.g., the “editing efficiency” or “percent editing” or “indel frequency”) is defined as the total number of sequence reads with insertions/deletions (“indels”) or substitutions over the total number of sequence reads, including wild type.
Lipid nanoparticle formulations of modified sgRNAs targeting human TTR and the cyno matched sgRNA sequences were tested on primary human hepatocytes and primary cyno hepatocytes in a dose response curve. Primary human and cyno hepatocytes were plated as described in Example 1. Both cell lines were incubated at 37° C., 5% CO2 for 24 hours prior to treatment with LNPs. The LNPs used in the experiments detailed in Tables 18-21 were prepared using the Nanoassemblr™ procedure, each containing the specified sgRNA and Cas9 mRNA (SEQ ID NO:2), each having Lipid. […]

Molecule | 12.5 ng mRNA, 3.9 nM sgRNA, Avg % Edit
B1 | 15.87%
B2 | 30.73%
B3 | 24.43%
B4 | 23.97%
B5 | 32.30%
B6 | 31.60%
B7 | 17.37%
B8 | 15.10%
B9 | 14.23%

test system: TTR; assay: TTR editing dose response (EC50, maximum editing) in primary cyno hepatocytes treated with LNP formulated U-depleted Spy Cas9 mRNA and sgRNAs; type: cell-based, cynomolgus monkey; conditions: LNP formulated U-depleted Spy Cas9 mRNA and cyno specific sgRNAs
Description: as §1
(§4) For LNPs prepared using the cross-flow technique, the LNPs were formed by impinging jet mixing of the lipid in ethanol with two volumes of RNA solutions and one volume of water. The lipid in ethanol is mixed through a mixing cross with the two volumes of RNA solution. A fourth stream of water is mixed with the outlet stream of the cross through an inline tee. (See WO2016010840 FIG. 2.) The LNPs were held for 1 hour at room temperature, and further diluted with water (approximately 1:1 v/v). Diluted LNPs were concentrated using tangential flow filtration on a flat sheet cartridge (Sartorius, 100 kD MWCO) and then buffer exchanged by diafiltration into 50 mM Tris, 45 mM NaCl, 5% (w/v) sucrose, pH 7.5 (TSS). Alternatively, the final buffer exchange into TSS was completed with PD-10 desalting columns (GE). If required, formulations were concentrated by centrifugation with Amicon 100 kDa centrifugal filters (Millipore). The resulting mixture was then filtered using a 0.2 μm sterile filter. The final LNP was stored at 4° C. or −80° C. until further use.
as §2, §3
(§5) Lipid nanoparticle formulations of modified sgRNAs targeting human TTR and the cyno matched sgRNA sequences were tested on primary human hepatocytes and primary cyno hepatocytes in a dose response curve. Primary human and cyno hepatocytes were plated as described in Example 1. Both cell lines were incubated at 37° C., 5% CO2 for 24 hours prior to treatment with LNPs. The LNPs used in the experiments detailed in Tables 20-22 were prepared using the cross-flow procedure described above but purified using PD-10 columns (GE Healthcare Life Sciences) and concentrated using Amicon centrifugal filter units (Millipore Sigma), each containing the specified sgRNA and Cas9 mRNA (SEQ ID NO:1). […] LNPs were incubated in hepatocyte maintenance media containing 6% cyno serum at 37° C., 5% CO2 for 5 minutes. […]

Molecule | Max Editing
B10 | 98.04%
B11 | 83.41%

same assay, conditions: LNP formulated U-depleted Spy Cas9 mRNA and human specific sgRNAs

Molecule | Max Editing
B10 | 7.16%

test system: TTR; assay: TTR editing dose response (EC50, maximum editing) in primary human hepatocytes treated with LNP formulated U-depleted Spy Cas9 mRNA and sgRNAs; type: cell-based; conditions: LNP with U-depleted Spy Cas9 mRNA and cyno specific sgRNA, 8 point 3-fold dose response starting at 300 ng mRNA, 72 hours
Description: as §1, §4, §2, §3, §5

Molecule | Max Editing
B10 | 7.16%

test system: potential off-target genomic sites; assay: Off-target analysis by oligo insertion based assay in primary human hepatocytes (sgRNAs); type: cell-based; conditions: 100 ng Cas9 mRNA, 25 nM sgRNA, 12.5 nM donor oligo, 48 h
Description: Off-target analysis of sgRNAs targeting TTR was performed in primary human hepatocytes (PHH) as described in Example 5, with the following modifications. PHH were plated at a density of 33,000 cells per well on collagen-coated 96-well plates as described in Example 1. Twenty-four hours post plating, cells were washed with media and transfected using Lipofectamine RNAiMAX (ThermoFisher, Cat. 13778150) as described in Example 1. Cells were transfected with a lipoplex containing 100 ng Cas9 mRNA, immediately followed by the addition of another lipoplex containing 25 nM of the sgRNA and 12.5 nM of the donor oligo (0.3 μL/well). Cells were lysed 48 hours post-transfection and gDNA was extracted and analyzed as further described in Example 5. The data is graphically represented in FIG. 20.
Fewer sites were detected in PHH for every guide tested as compared to the HekCas9 cell line, with no unique sites detected in PHH alone.

Molecule | # Sites in PHH (off-target integration sites detected)
B1 | 5
B2 | 0
B3 | 19
B4 | 1
B5 | 0
B6 | 7
B7 | 0
B8 | 3
B9 | 3

From US20230035659A1, “Compositions and Methods for TTR Gene Editing and Treating ATTR Amyloidosis Comprising a Corticosteroid or Use Thereof” (Intellia Therapeutics, Inc., priority 2019, published 2023)
